Assay results: US20200022997A1, “ORAL ANTICANCER PRODRUGS, THEIR PREPARATION METHODS AND APPLICATIONS” (Seoul National university R&DB Foundation, priority 2018, published 2020)
Read-outs that look alike come from different tables or passages of the source. *1 amine or outer side, *2 acyl side, *3 side chain or, on linkers, in order; H or OH if unused. Where a SMILES comes first, the peptide text is derived from it. [ ]: non-standard residue; d: D form. The star is where a group is joined. Doxorubicin(3'-N) = COc1cccc2c1C(=O)c1c(O)c3c(c(O)c1C2=O)C[C@@](O)(C(=O)CO)C[C@@H]3O[C@H]1C[C@H](N*)[C@H](O)[C@H](C)O1; PABC = O=C(OCc1ccc(N[*:1])cc1)[*:2]

Assays:
[1] = system: MDA-MB-231 human breast cancer cell line; assay: MTT cytotoxicity assay combined with radiation (4 Gy) and/or caspase inhibitor Z-VAD-FMK; format: cell-based; details: by itself, without radiation
Protocol: The degree of cytotoxicity of DEVD-S-DOX was assessed using an in vitro MTT assay and combined radiation therapy in the MDA-MB-231 human breast cancer cell line. The MDA-MB-231 cell line was irradiated with radiation and the expression of caspase-3 was evaluated. Western blot (FIG. 6A) and a cellular caspase-3 activity assay (FIG. 6B) confirmed that the expression of caspase-3 increased over time.
Next, the cancer cells were cultured in a 96-well microplate at the density of 5×10^4 cell/well in DMEM (10% FBS) medium for 24 hours, and then treated with DEVD-S-DOX or 5 μM Doxorubicin. Some of the test groups were also treated with Z-VAD-FMK, which is a caspase inhibitor. Then cells were irradiated with 4 Gy of radiation, and after 24 and 48 hours, cell viability was assessed against the controls using an MTT assay (FIG. 7). […] This confirmed that caspase-3 was expressed via radiation therapy in the cancer cells, which then activated DEVD-S-DOX and led to a synergistic cytotoxic effect.

[2] = rat, in vivo; for Cmax: Sprague Dawley
Protocol: (§1) Quantitative analysis was performed by measuring the fluorescence intensity in plasma, and using a standard curve to determine concentration (FIG. 9).

[3] = in vivo; details: Sprague Dawley, rat
Protocol: as §1

[4] = system: human breast cancer cells MDA-MB-231; assay: MTT cytotoxicity assay with or without human recombinant caspase-3; details: read-out: IC50 cytotoxicity (MTT); pretreated with caspase-3 (500 ng/mL), 48 hours
Protocol: The cytotoxicity of DEVD-S-DOX in human breast cancer cells MDA-MB-231 was assessed using MTT assay with or without the treatment with human recombinant caspase-3. After the cancer cells were placed on a 96-well microplate at the concentration of 5×10^4 cell/well and cultured in DMEM (10% FBS) media for 24 hours, doxorubicin, DEVD-S-DOX, and DEVD-S-DOX, pre-treated with caspase-3 (500 ng/mL), were added at concentrations ranging from 0.01-100 μM, and further cultured for 48 hours. After that, 10 μL of MTT agent were added to each well and cultured for 2 hours at 37° C. until a blue precipitate forms. At this point, 100 μL of detergent agent was added and cultured for 4 hours at room temperature. Optical density was measured in each well at 570 nm to determine cell viability.

[5] = Toxicity evaluation: hematological and biochemical parameters and histology after one month of administration; details: 2.5 mg/kg
[6] = system: MDA-MB-436 xenograft; assay: MDA-MB-436 xenograft, daily oral dosing with or without olaparib; format: in vivo, female NSG SCID mouse; details: monotherapy, 50 mg/kg intraperitoneal, 5 days on/2 days off for two weeks
Protocol: Human breast cancer MDA-MB-436 cells were transplanted into a female NSG SCID mouse, and when the cancer tumor size reached 100-150 mm^3, 3 mg/kg of DEVD-S-DCX/DCK (based on the docetaxel content), was orally administered daily. 50 mg/kg of olaparib was administered by intraperitoneal injection daily for the first five days of every week for two weeks (5 days on/2 days off). In addition, a test group without olaparib was daily orally administered 3 mg/kg DEVD-S-DCX/DCK (based on the docetaxel content).

In the case of `COc1cccc2c1C(=O)c1c(O)c3c(c(O)c1C2=O)C[C@@](O)(C(=O)CO)C[C@@H]3O[C@H]1C[C@H](NC(=O)OCc2ccc(NC(=O)[C@H](CC(=O)O)NC(=O)[C@@H](NC(=O)[C@H](CCC(=O)O)NC(=O)[C@H](CC(=O)O)NC(=O)CNC(=O)[C@H](CCCCN)NC(C)=O)C(C)C)cc2)[C@H](O)[C@H](C)O1` [DEVD-S-DOX, Ac-KGDEVD-PABC-Doxorubicin] (Ac-KGDEVD[PABC]-{Doxorubicin(3'-N)}), the “cytotoxicity (MTT)” value [1] is reported as “did not show any noticeable cytotoxicity”, the Cmax ([2]; iv, 1 mg/kg) is reported as 3370 ± 310 ng/mL and the Cmax ([2]; po, 10 mg/kg) is reported as 72 ± 33 ng/mL. For the same molecule, the “BA (bioavailability)” value ([2]; po, 10 mg/kg) was “negligible bioavailability”, the AUC(0-inf) ([3]; iv, 1 mg/kg) was 3370 ± 250 ng·h/mL and the AUC(0-t) ([3]; iv, 1 mg/kg) was 3110 ± 290 ng·h/mL. The MRT ([3]; iv, 1 mg/kg) was 2.01 ± 0.28 h, the AUC(0-inf) ([3]; po, 10 mg/kg) was 130 ± 60 ng·h/mL and the AUC(0-t) ([3]; po, 10 mg/kg) was 100 ± 50 ng·h/mL. The MRT ([3]; po, 10 mg/kg) was 1.18 ± 0.03 h, the Tmax ([3]; po, 10 mg/kg) was 1 h and the bioavailability ([3]; po, 10 mg/kg) was 0.45 ± 0.22%. The IC50 [4] was 1780 nM, the BASO [5] was 1.0 ± 0.5% and the MONO ([5]; normal range 1.0-5.0) was 6.8 ± 1.7%. It also gave a WBC ([5]; normal range 4.0-15.0) of 12.8 ± 5.4 m/mm^3, an RBC ([5]; normal range 6.0-11.0) of 7.1 ± 1.4 M/mm^3 and a Segment ([5]; normal range 10.0-30.0) of 18.2 ± 0.7%. The MCH ([5]; normal range 13.0-22.0) was 16.4 ± 1.8 pg, the Hb ([5]; normal range 14.0-18.0) was 11.4 ± 1.3 g/dL and the MCHC ([5]; normal range 24.0-40.0) was 33.4 ± 3.8 g/dL. The Hct ([5]; normal range 35.0-45.0) was 35.1 ± 7.2%, the MCV ([5]; normal range 35.0-50.0) was 49.2 ± 7.2 fL and the Lympho ([5]; normal range 70.0-81.0) was 71.0 ± 4.9%. The Platelet ([5]; normal range 600-1000) was 1008 ± 392 m/mm^3 and the EOS ([5]; normal range <10.0) was 2.8 ± 1.4%.
For `O=C(c1cc(Cc2n[nH]c(=O)c3ccccc23)ccc1F)N1CCN(C(=O)C2CC2)CC1` [olaparib], the tumor growth suppression [6] was “ineffective”.
